Several values for one entry are separate records, joined by “and”; a condition that tells them apart may be missing. Equal values may be shown once. Entries after “also recorded” stand apart in the source; their conditions may differ.
Tests used:
[1] = tested on: ovarian cancer SKOV-3 cells; test: Soft agar assay, SKOV-3
[2] = tested on: glioblastoma U87MGvIII cells; test: Soft agar assay, U87MGvIII
glioblastoma U87MG cells = test: Soft agar assay, U87MG
[3] = tested on: lung metastasis of prostate cancer; details: rat, in vivo; cited from earlier work
CHO-3E7 = test: Cell-ELISA on live CHO-3E7 cells; type: cell-based, Chinese hamster; details: hybridoma supernatant; OD450 nm; duplicate 1
Method: Cell-ELISA. Sterile 96-well plates (Costar #3595) were pre-treated with 50 μl/well of branched polyethyleneimine (PEI, Sigma Cat #408727) at 25 μg/ml in PBS for 30 min at room temperature. PEI was removed and CHO-3E7 or hNAv1.7-CHO (ChanTest cat #CT4003) were seeded at 6×10^5 cells per well in FreeStyle F17 Expression Medium (Gibco Cat #A1383501) and incubated overnight at 37° C., 5% CO2. Microplates were blocked with Starting block (Thermofisher Cat #37538) for 30 min at room temperature, and 50 μl of hybridoma supernatants were added and incubated at 4° C. for 3 h. Plates were washed 5 times with PBS and incubated for one hour at 4° C. with 50 μl of secondary antibody HRP-conjugated F(ab′)2 goat anti-mouse IgG (H+L) (Jackson Immunoresearch #115-036-062) diluted 1/5000 in blocking buffer. After 10 washes with PBS, 50 μl of TMB substrate solution (Pierce Cat #34021) was added and further incubated for 60 min at room temperature. Twenty-five μl/well of stop solution ([…] 1M) was added and OD450 nm measurements were done using a microplate reader (Spectramax 340 PC, Molecular Devices).

hNav1.7 channels = hNav1.7 channels (Homo sapiens, UniProt Q15858, W1161R); test: Patch-clamp whole-cell recordings in hNav1.7-HEK293 cells; type: cell-based; details: example recordings; 1-3 μM
FC5DIE3IR [4] = target: T1, FC5DIE3IR (Homo sapiens, UniProt Q15858); test: Evaluation of apparent affinity of purified mAbs in ELISA; type: binding; details: purified mAb, OD 405 nm
T1 construct: The supernatant was collected and loaded on a 5 ml MabSelect™ SuRe™ column; made in house; host or cells: CHO-3E7 (transient, pTT5 vector), purified from supernatant
Method: Screening. Hybridoma supernatants were screened by ELISA to detect specific binders. To this end, 96-well half-area plates (Costar #3690) were coated with 25 μl of FC5DIE3IR or FC5-VHH or FC5-hFc-1X0 at 5 μg/ml in PBS and incubated overnight at 4° C. Microplates were washed 3 times with PBS, blocked with PBS-BSA 1%, and 25 μl of hybridoma supernatants were added and incubated at 37° C., 5% CO2 for 2 hours. Plates were washed 4 times with PBS-Tween 20 0.05% and incubated for one hour at 37° C., 5% CO2 with 25 μl of secondary antibody alkaline phosphatase conjugated F(ab′)2 goat anti-mouse IgG Fc-gamma specific (Jackson Immunoresearch #115-056-071) diluted 1/3000 in blocking buffer. After 4 washes with PBS-Tween 20 0.05%, 25 μl of a 1 mg/ml pNPP substrate solution was added and further incubated for one hour at 37° C. OD405 nm measurements were done using a microplate reader (Spectramax 340 PC, Molecular Devices).
Evaluation of apparent affinity in ELISA. Purified antibodies were assessed for their binding activity by ELISA in a dose-dependent binding curve. […] The data were analyzed with GraphPad Prism software using one-site specific binding-with Hill slope non-linear regression curve fit model to determine Bmax (maximum specific binding) and Kdapp (concentration needed to achieve a half-maximum binding at equilibrium) for each mAb tested. […]

VHH FC5 = test: Surface Plasmon Resonance of mAbs, FC5 control; type: binding; details: 25 °C
VHH FC5, sequence (as listed by the source): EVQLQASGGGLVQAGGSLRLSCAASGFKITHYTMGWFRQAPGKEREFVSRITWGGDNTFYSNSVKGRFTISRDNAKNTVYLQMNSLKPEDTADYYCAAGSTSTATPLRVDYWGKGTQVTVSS
Method: (§1) Surface Plasmon Resonance of mAbs. FC5 and FC5DIE3IR proteins were SEC purified using a Superdex 75 column (GE Healthcare) connected to an AKTAPurifier (GE Healthcare) in HBS-EP+ running buffer (10 mM HEPES, pH 7.4, containing 150 mM NaCl, 3 mM EDTA and 0.05% P20) at a flow rate of 1 ml/min. Monomeric eluted peaks were used to flow over Fc-capture 3A8 mAb surfaces. To prepare the 3A8 mAb surfaces, approximately 6000 RUs of anti-mouse IgG (GE Healthcare) was first immobilized on CM5 Series S sensor chips (GE Healthcare) at pH 5.0, using standard amine coupling methods previously reported (Hussack et al., 2011) and according to the manufacturer's instructions (GE Healthcare). HBS-EP running buffer used for SPR experiments. The mAb 3A8 was captured on the anti-mouse IgG surface using 10 μg/ml of mAb, 30 sec contact time and flow rate of 10 μl/min. IMAC-purified DI-D VHH was passed through a Superdex 75 (GE Healthcare) column for SEC purification in HBS-EP buffer (10 mM HEPES, pH 7.4, containing 150 mM NaCl, 3 mM EDTA and 0.005% P20), connected to an AKTAPurifier (GE Healthcare) at a flow rate of 1 ml/min. Test binding experiments of FC5 control and FC5DIE3IR involved flowing 1 μM concentrations of SEC-pure material over the mAb surface at a flow rate of 30 μl/min for 5 min. Surfaces could be regenerated using 10 mM glycine, pH 1.7, with a 120 sec pulse at 20 μl/min. All SPR experiments were evaluated with Biacore T200 Software v 3.0. For kinetic analysis, single cycle kinetic analysis was used by flowing a range of FC5DIE3IR concentrations (320 nM-20 nM) at a flow rate of 30 μl/min, with 600 sec contact time and 1200 sec dissociation. Regeneration conditions were the same as above. Data were fit to a 1:1 binding model and analyzed using the Biacore T200 Software v3.0.
(§2) Surfaces were regenerated by washing with running buffer (HBS-EP). Data were analyzed with BIAevaluation 4.1 software as described (Hussack et al., 2011) and affinities determined using the steady state binding model.
(§3) Surface Plasmon Resonance (SPR) for monoclonal antibodies.

FC5DIE3IR [5] = target: T1, FC5DIE3IR; test: Hydrogen-Deuterium Exchange Mass Spectrometry (HDX-MS); type: binding; details: labelling 1, 10 and 60 min
FC5DIE3IR [6] = target: T1, FC5DIE3IR; test: Surface Plasmon Resonance of mAbs, FC5DIE3IR; type: binding; details: Fc-captured mAb, FC5-DIE3IR flowed; SCK; 25 °C
Method: as §1, §2, §3

Molecule: NC1=N[C@H](O)[C@H]2[C@H]3O[C@]4(O)O[C@@H]([C@@H](O)[C@@]2(N1)[C@@H]4O)[C@]3(O)CO [TTX, tetrodotoxin, reference compound]
- Reduction of colony formation [1]: 70%
- Reduction of colony formation [2]: 55%
- Reduction of colony formation (glioblastoma U87MG cells): 75% and 84%
- Reduction of the number of lung metastasis [3]: > 40%

B1: 1G5: mouse mAb IgG1, k binding both FC5 and DIE3IR, no effect on hNav1.7 currents; negative control; SEQ ID NO: 21 and 27 (antibody, V domains shown)
VH: QVQLQQPGAELVKPGASVKLSCKASGYTFTSYWINWVKQRPGQGLEWIGNIYPGNSNTNYNEKFKSKATLTVDKSSSTAYMQLSSLTSEDSAVYYCARRYYYDYDDAMDYWGQGTSVTVSSAKTTPPSVYPLAP
VL: DIVLTQSPASLAVSLGQRATISCRASESVDSYGNGFMHWYQQKPGQPPKLLIYRASNLESGIPARVSGSGSRTDFTLTINPVEADDVATYYCQQSNEDPWTFGGGTKLEIKRADAAPTVSIFPPSS
modifications: Heavy chain of the 1G5 and 1G9 antibodies without leader sequence; Light chain of the 1G5 and 1G9 antibodies without leader sequence
- ELISA on live cells (duplicates) CHO-3E7 (CHO-3E7): 0.008
- Effect on hNav1.7 currents (in words) (hNav1.7 channels): no effect; also recorded: did not reduce hNav1.7 currents
- Bmax (maximum specific binding) (FC5DIE3IR [4]): 1.7
- Binding to FC5 control (comment, in words) (VHH FC5; SPR): Binding to both
- ka (VHH FC5; target FC5): 289000 M⁻¹ s⁻¹
- kd (VHH FC5; target FC5): 0.017 s⁻¹
- Stabilization of FC5DIE3IR in response to mAb binding (residues, differential HDX-MS) (FC5DIE3IR [5]): no effect on conformational stability
- ka (FC5DIE3IR [6]): 72900 M⁻¹ s⁻¹
- kd (FC5DIE3IR [6]): 0.0136 s⁻¹
